This passage reports pKa results from publication PMC6906691.

What all share (assay): chemical modification
Holding throughout (conditions): 37 °C, added salt not given, universal pH buffer: 5 mM CHES, 5 mM HEPES, 5 mM MES, degassed and charged with nitrogen

Series [1] concerns the target Cys3 (position 3, ---GGCPYADA).
Series [2] has as its target Cys3 (position 3, ---KKCPYSDA).
Series [3] has as its target Cys3 (position 3, ---YGCPAADA).
Series [4] concerns the target Cys3 (position 3, ---YGCAAADA).
Series [5] addresses Cys3 (position 3, ---RRCPYSDA).
Series [6] addresses Cys3 (position 3, ---KKCPYSAD).
Series [7] addresses Cys3 (position 3, ---YGCAAAAA).
The target of series [8] is Cys3 (position 3, ---KKCPYSAA).
The mark [9] stands for this setting: free peptide, 2-4Zn(II) absent. Peptide-a of this series, which lacks Cys, is described as a random coil without zinc complex.
Setting [10] is: peptide (4 µM) in binding complex with the tetranuclear zinc complex 2-4Zn(II) (14 µM), alpha-helical conformation induced by the complex.

For GGCPYADAAADAAADAAAD [peptide-e (Cys-Pro-Tyr-Ala glutaredoxin-mimicking tag peptide) (synthetic construct)], the pKa amounted to 8.48 in series [1] (setting [9]) and 7.46 in series [1] (setting [10]).
KKCPYSDAAADAAADAAAD [peptide-g (synthetic construct)]: the figures for the pKa in series [2] (setting [9]) and in series [2] (setting [10]) were 8.04 and 7.13, respectively.
YGCPAADAAADAAADAAAD [peptide-f (synthetic construct)]: the values for the pKa in series [3] (setting [9]) and in series [3] (setting [10]) were 8.93 and 7.80, respectively.
On to YGCAAADAAADAAADAAAD [peptide-d (Asp-rich alpha-helical tag peptide) (synthetic construct)], for which the values for the pKa in series [4] (setting [9]) and in series [4] (setting [10]) were 8.89 and 7.94, respectively.
On to RRCPYSDAAADAAADAAAD [peptide-h (synthetic construct)], for which the pKa is 8.02 in series [5] (setting [9]) and 7.18 in series [5] (setting [10]).
With KKCPYSADAAADAAADAAAD [peptide-j (synthetic construct)], the pKa in series [6] (setting [9]) stood at 7.94; in series [6] (setting [10]), 7.08.
Regarding YGCAAAAAADDDDGDDDD [peptide-i (D4-tag peptide) (synthetic construct)], the pKa in series [7] (setting [9]) stood at 8.96; in series [7] (setting [10]) it was 8.22.
For KKCPYSAADAAADAAADAAAD [peptide-k (helixD2-tag peptide) (synthetic construct)], the pKa is listed as 7.95 in series [8] (setting [9]) and 7.14 in series [8] (setting [10]).

As usually defined, the pKa is the pH at which an ionisable group is half protonated.
